Reference: article PMC3666314

Target: biotinylated PECAM-1 Y663,pY686 peptide (human)
Experiment: flow cytometry bead-based binding assay

binding relative to the Lyn SH2 domain: 2 fold
B1: GST fusion protein containing the SH2 domain of Csk (domain or fragment)
chain: WFHGKITREQAERLLYPPETGLFLVRESTNYPGDYTLCVSCDGKVEHYRIMYHASKLSIDEEVYFENLMQLVEHYTSDADGLCTRLIKPK
